Measurements published in the supplement of paper PMC9170038.

Tested on: MS2 coat protein
Assay: apparent KD of MS2 coat protein; designed switch direction (-1 OFF switch, 1 ON switch): 1; higher = weaker reporter binding
How it was run: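 The apparent KD reported per design is the median over clusters of curve fits to normalised cluster fluorescence. The RNA switches were transcribed on Illumina chips by stalled E. coli RNA polymerase. SNAP-549-labelled MS2 coat protein was titrated from 0.7 or 1.5 nM, doubling up to 3 µM, in Tris-HCl pH 7.5 buffer containing KCl, MgCl2, BSA, DTT, tRNA and Tween-20, with no input, 200 uM small-molecule ligand, or an oligonucleotide input.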

[1] = Eterna round: R95, input ligand: FMN 200 uM
[2] = Eterna round: R95, input ligand: microRNA oligo, concentration not stated
[3] = Eterna round: R95, input ligand: none
[4] = input ligand: microRNA oligo, concentration not stated

Row | Sequence | apparent KD of MS2 coat protein [1] [nM] | apparent KD of MS2 coat protein [2] [nM] | apparent KD of MS2 coat protein [3] [nM] | apparent KD of MS2 coat protein (input ligand: FMN 200 uM) [nM] | apparent KD of MS2 coat protein [4] [nM] | apparent KD of MS2 coat protein (input ligand: none) [nM]
1 | ACCCAAGGUAUAUGGGAACAAGCUUUUUAACAUGAGGAUCACCCAUGUACUCGUCUUAUAAGCAGUCGAAAGACUGC [Sensor 100 - 6] (puzzle: Sensor for hsa-mir-208a) | 619 | 16.1 | 831 |  |  | 
2 | GAGAGAUGGCGAGGAUAUGCGGUGAUAAUGAUGGCAGAAGGCGCUGACAUGAGGAUCACCCAUGUGGGAAUAAUCCAGAGAGAG [Parity 17 - Jieux - Same State NG 1] (Eterna round: R96, puzzle: Same State NG 1) |  |  |  | 279 | 564 | 683
3 | GUUAGGAAUCUAGCCAACAUGAGGAUCACCCAUGUUAGUGGGAAGGAUAUGGUACAGAAACUGUACCAGAAGGUCUUAUUGUUU [Omei SS(NG) 3 AV10] (Eterna round: R96, puzzle: Same State NG 3) |  |  |  | 75.4 | 54.6 | 96.6
4 | UAUCAUUACACGAAGGAUAUCGAUAAUUGAACAUGAGGAUCACCCAUGUGAUAUAUUUUACAGUUCGAGAAGGUCGAGGGUGAAG [JR_SS002_Sub705] (Eterna round: R96, puzzle: Same State 2) |  |  |  |  | 28.5 | 
5 | GCUGCAUGGGCAGGAUAUGGGUUCAGAGCGGAAGUGCGCUUUGAUACAUGAGGAUCACCCAUGUCCCAGAAGGGCCCAAGCGGC [Laleinza] (Eterna round: R96, puzzle: Same State NG 2) |  |  |  | 18.4 | 53.7 | 97.3
6 | UUAAAACAUGAGGAUCACCCAUGUCAACAAAGUCGAGGAUAUGGGCAAAUAAAAUAAGAACCAGAAGGCGAAUAAG [salish99_SS1_r3_005] (puzzle: Same State 1) | 36.9 | 221 | 314 |  |  | 
7 | AGUCCAGCCUGAGCUGGACAAGAGCAUGUACAUGAGGAUCACCCAUGUUCAUGUACAAGCUUUUUGCUCGUCUUAAA [Zipper 52 - 2] (puzzle: Sensor for hsa-mir-208a) | 399 | 12.7 | 565 |  |  | 
8 | GUAGCAUACCGAGGAUAUUCAUUACAUGAGGAUCACCCAUGUUUUAUAGGCCGAUUACGGCCUUGGGAGAAGGCGGAAUGCUAC [Xeonanis - 20 Mod27] (Eterna round: R96, puzzle: Same State NG 2) |  |  |  |  | 9.7 | 
9 | ACGCAGCUGGGCUAGGAUAUCGGUGGUAAAACAUGAGGAUCACCCAUGUCCGAAGCUCGGACUUCCGAGAAGGAGCCCGGCUGCG [Soinraesar Omei Mod 9] (puzzle: Same State 2) | 34.1 | 253 | 481 |  |  | 
10 | CCUUAGUACAAUUUAGAUCUACAUGAGGAUCACCCAUGUACUGAGGAUAUCAGCUCGAUUAGAGCUGAGAAGGCAGAAGUACUU [SSNG3/7-A2] (Eterna round: R96, puzzle: Same State NG 3) |  |  |  | 90.9 | 122 | 144
11 | AGGCAAGCUUUUUGCUUGUAUGCAGGAGAACAUGAGGAUCACCCAUGUCUUGGAGGUGUUGAAAAUAAGAGAAUGCA [JR_SHM208A_Sub006] (puzzle: Sensor for hsa-mir-208a) | 63.9 | 72.8 | 93.9 |  |  | 
12 | GGUCCAGCCUGAGCUGGACGAAAGUAUGUACAUGAGGAUCACCCAUGUCAUGUAUAAGUUUUUUGUUCGUCUUGAAA [Sensorship 1 - Jieux - Sensor for hsa-mir-208a] (puzzle: Sensor for hsa-mir-208a) | 26 | 14.2 | 23.1 |  |  | 
13 | UUAACAUGAGGAUCACCCAUGUAUAGGGAGUUUGCAAUUUGACAGGAUAUUGAAGAUGUAGAUAGCAAGAAGGGUCGGUAGUCU [JR_SSNG3_Sub004] (Eterna round: R96, puzzle: Same State NG 3) |  |  |  | 46.1 | 32.4 | 43.9
14 | AAUUAAGAUUGAGGAUAUCACGUCGUUUAGACGUGAGAAGGCGAUCAUAACAUGAGGAUCACCCAUGUAUUACAUGAAUUAAUU [SSNG1/5-B3] (Eterna round: R96, puzzle: Same State NG 1) |  |  |  | 17.8 | 20 | 34
15 | GUUAUUAAUGCAGGAUAUGAUUAACAUGAGGAUCACCCAUGUGGUGUUGUGAGUAAGGAGAGUGAUCAGAAGGGCAUUUUUUUU [JMF's solution 40] (Eterna round: R96, puzzle: Same State NG 2) |  |  |  | 890 | 815 | 764
16 | AAAAGACAGGCAGGAUAUGGGCCUGGCUCUGAUAUCAGAGCCUACACAUGAGGAUCACCCAUGUCCCAGAAGGGCCUGUAGAAG [Cetiriqu] (Eterna round: R96, puzzle: Same State NG 2) |  |  |  | 19.4 | 65.3 | 79.1
17 | UUAAGCAACGGGCAGGAUAUGUAUUAAAAUACAUGAGGAUCACCCAUGUGCAGGUGUAACACCUGACAGAAGGGCCAAUCGCUGC [Soteed - 7] (puzzle: Same State 2) | 63.8 | 531 | 900 |  |  | 
18 | UUGAAUAAUUAAGGAUAUUGAGUACAUAUGUUUAACAUGAGGAUCACCCAUGUGGGUUGCGGUAUCGAGAAGGUAAAUUACUAG [Mat - same State NG 2 - JL mod - D67] (Eterna round: R96, puzzle: Same State NG 2) |  |  |  | 145 | 83.8 | 125
19 | UGUUGUAUUACAGGAUAUCUAGUAUUUUUAGUUAGAGAAGGGUAUUCACAUGAGGAUCACCCAUGUAUAUACGAGGAAGUUGUG [JMF's solution 49] (Eterna round: R96, puzzle: Same State NG 1) |  |  |  | 43.7 | 36.9 | 45.7
20 | GCCGCAAGGGCAGGAUAUGGGUCCAGAACGCAAAUGCGCUCUGGUACAUGAGGAUCACCCAUGUCCCAGAAGGGCCCAAGCGGC [Isusara] (Eterna round: R96, puzzle: Same State NG 2) |  |  |  | 16.5 | 96.5 | 106
21 | GGAGGACAUGAGGAUCACCCAUGUAAAUGGGCGCUAGGAUAUGCGAGAGGGUGGAGAGGAGCAGAAGGAGUGGAUA [JR_SS1_Sub039] (puzzle: Same State 1) | 105 | 180 | 207 |  |  | 
